The results in this text go back to US20240366728A1, “Treatment of Diabetes Mellitus” (Carmot Therapeutics Inc., priority 2023, published 2024).

This test addresses mouse GLP-1R (mouse) (UniProt O35659). As to the kind of experiment: cell-based or functional assay.

Chain of mouse GLP-1R (mouse) (O35659 22-463): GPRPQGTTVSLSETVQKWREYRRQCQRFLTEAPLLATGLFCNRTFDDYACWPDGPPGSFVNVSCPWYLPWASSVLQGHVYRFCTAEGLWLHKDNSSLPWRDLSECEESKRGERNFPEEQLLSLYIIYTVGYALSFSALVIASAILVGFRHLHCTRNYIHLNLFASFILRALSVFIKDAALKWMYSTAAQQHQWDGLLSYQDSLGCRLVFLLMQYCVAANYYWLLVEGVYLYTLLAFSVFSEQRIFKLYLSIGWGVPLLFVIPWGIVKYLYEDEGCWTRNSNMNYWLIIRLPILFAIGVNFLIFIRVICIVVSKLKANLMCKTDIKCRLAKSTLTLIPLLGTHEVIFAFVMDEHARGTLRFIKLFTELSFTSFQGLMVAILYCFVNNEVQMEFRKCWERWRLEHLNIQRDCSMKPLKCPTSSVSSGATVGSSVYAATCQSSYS

In turn, “Human GLP-1 (7-36) (from UniProt P01275 21-180) (ligand)” yielded a cAMP accumulation EC50 of 3 pM and a β-arrestin-2 recruitment of 99%.
In the case of Liraglutide (peptide), the mGLP-1R cAMP (-alb) % Emax turned out to be 92% and the mGLP-1R β-arrestin-2 % Emax was determined as 80.7%.
